Results on 30 molecules are retold here after patent publication US20100130424A1 (Janssen / Centocor, published 2010).

No end group written: not given here.

The target of the experiment is T1, human CRH receptor type 2 (human, UniProt Q13324 1-411).
T1 sequence (looked up): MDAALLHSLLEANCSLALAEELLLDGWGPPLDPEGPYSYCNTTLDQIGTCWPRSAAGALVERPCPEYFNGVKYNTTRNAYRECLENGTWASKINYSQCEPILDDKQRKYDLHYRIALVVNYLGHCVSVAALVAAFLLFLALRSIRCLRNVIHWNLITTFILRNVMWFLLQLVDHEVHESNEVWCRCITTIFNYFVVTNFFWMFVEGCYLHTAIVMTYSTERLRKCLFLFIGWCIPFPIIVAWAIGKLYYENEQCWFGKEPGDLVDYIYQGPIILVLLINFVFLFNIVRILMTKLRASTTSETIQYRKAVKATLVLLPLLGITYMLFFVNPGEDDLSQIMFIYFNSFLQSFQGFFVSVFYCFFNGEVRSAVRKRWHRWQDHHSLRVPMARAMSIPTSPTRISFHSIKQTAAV
In words: cell-based or functional assay.
For TKFTLSLDVPTNICNLLFNIAKAKNLRAQAAANAHLMAQI-NH2 [Cys-variant CRHR2 peptide agonist, SEQ ID NO: 15], the “Log DR against h-SCP, cAMP” value was found to be 0.9 log10 ratio and the “pA50, cAMP” value was 8.68 -log M.

In the case of TKFTLSLDVPTNIMNLLFNIAKAKCLRAQAAANAHLMAQI-NH2 [Cys-variant CRHR2 peptide agonist, SEQ ID NO: 26], the “Log DR against h-SCP, cAMP” value worked out at 0.08 log10 ratio and the “pA50, cAMP” value is 9.44 -log M.

Consider TKFTLSLDVPTNIMNLLFNCAKAKNLRAQAAANAHLMAQI-NH2 [Cys-variant CRHR2 peptide agonist, SEQ ID NO: 21], for which the “Log DR against h-SCP, cAMP” value was 0.77 log10 ratio and the “pA50, cAMP” value was 8.75 -log M.

For TKFTLSLDVPTNIMCLLFNIAKAKNLRAQAAANAHLMAQI-NH2 [Cys-variant CRHR2 peptide agonist, SEQ ID NO: 16], the “Log DR against h-SCP, cAMP” value turned out to be 0.76 log10 ratio and the “pA50, cAMP” value was 8.93 -log M.

On to TKFTLSLDVPTNIMNLLFNIAKAKNCRAQAAANAHLMAQI-NH2 [Cys-variant CRHR2 peptide agonist, SEQ ID NO: 27], for which the “Log DR against h-SCP, cAMP” value was 0.76 log10 ratio and the “pA50, cAMP” value was 8.76 -log M.

Take TKFTLSLDVPTNIMNLLFNIACAKNLRAQAAANAHLMAQI-NH2 [Cys-variant CRHR2 peptide agonist, SEQ ID NO: 23]: the “Log DR against h-SCP, cAMP” value was found to be 1.13 log10 ratio and the “pA50, cAMP” value was 8.55 -log M.

On to TKFTLSLDVPTNIMNCLFNIAKAKNLRAQAAANAHLMAQI-NH2 [Cys-variant CRHR2 peptide agonist, SEQ ID NO: 17], for which the “Log DR against h-SCP, cAMP” value amounted to 0.02 log10 ratio and the “pA50, cAMP” value is 9.5 -log M.

Turning to TKFTLSLDVPTNIMNLLFNIAKACNLRAQAAANAHLMAQI-NH2 [Cys-variant CRHR2 peptide agonist, SEQ ID NO: 25], the “Log DR against h-SCP, cAMP” value was 0.35 log10 ratio and the “pA50, cAMP” value is 9.17 -log M.

In the case of TKFTLSLDVPTNIMNLCFNIAKAKNLRAQAAANAHLMAQI-NH2 [Cys-variant CRHR2 peptide agonist, SEQ ID NO: 18], the “Log DR against h-SCP, cAMP” value stood at 1.11 log10 ratio and the “pA50, cAMP” value is 8.41 -log M.

Take TKFTLSLDVPTCIMNLLFNIAKAKNLRAQAAANAHLMAQI (NES-PEG (about 20 kDa) on Cys 12; C-terminal amide) [Pegylated Cys-variant CRHR2 peptide agonist (NES linker, PEG about 20 kDa), SEQ ID NO: 66]: the “Log DR against h-SCP, cAMP” value worked out at 1.26 log10 ratio and the “pA50, cAMP” value is 8.31 -log M.

On to TKFTLSLDVPTNIMNLLCNIAKAKNLRAQAAANAHLMAQI (NES-PEG (about 20 kDa) on Cys 18; C-terminal amide) [Pegylated Cys-variant CRHR2 peptide agonist (NES linker, PEG about 20 kDa), SEQ ID NO: 72], for which the “Log DR against h-SCP, cAMP” value turned out to be 1.5 log10 ratio and the “pA50, cAMP” value is 8.04 -log M.

For the molecule TKFTLSLDVPTNIMCLLFNIAKAKNLRAQAAANAHLMAQI (NES-PEG (about 20 kDa) on Cys 15; C-terminal amide) [Pegylated Cys-variant CRHR2 peptide agonist (NES linker, PEG about 20 kDa), SEQ ID NO: 69], the “Log DR against h-SCP, cAMP” value came to 2.09 log10 ratio and the “pA50, cAMP” value was 7.45 -log M.

On to TKFTLSLDVPTNIMNLLFNIAKCKNLRAQAAANAHLMAQI (NES-PEG (about 20 kDa) on Cys 23; C-terminal amide) [Pegylated Cys-variant CRHR2 peptide agonist (NES linker, PEG about 20 kDa), SEQ ID NO: 77], for which the “Log DR against h-SCP, cAMP” value was found to be 1.27 log10 ratio and the “pA50, cAMP” value was 8.27 -log M.

As for TKFTLSLDVPTNIMNLLFNCAKAKNLRAQAAANAHLMAQI (NES-PEG (about 20 kDa) on Cys 20; C-terminal amide) [Pegylated Cys-variant CRHR2 peptide agonist (NES linker, PEG about 20 kDa), SEQ ID NO: 74], the “Log DR against h-SCP, cAMP” value is around 2.28 log10 ratio and the “pA50, cAMP” value is ~7.33 -log M.

As for TKFTLSLDVPTNIMNLLFCIAKAKNLRAQAAANAHLMAQI (NES-PEG (about 20 kDa) on Cys 19; C-terminal amide) [Pegylated Cys-variant CRHR2 peptide agonist (NES linker, PEG about 20 kDa), SEQ ID NO: 73], the “Log DR against h-SCP, cAMP” value is 1.11 log10 ratio and the “pA50, cAMP” value is 8.29 -log M.

Turning to TKFTLSLDVPTNICNLLFNIAKAKNLRAQAAANAHLMAQI (NES-PEG (about 20 kDa) on Cys 14; C-terminal amide) [Pegylated Cys-variant CRHR2 peptide agonist (NES linker, PEG about 20 kDa), SEQ ID NO: 68], the “Log DR against h-SCP, cAMP” value is around 2.61 log10 ratio and the “pA50, cAMP” value is ~6.96 -log M.

Consider TKFTLSLDVPTNIMNLLFNIAKAKNCRAQAAANAHLMAQI (NES-PEG (about 20 kDa) on Cys 26; C-terminal amide) [Pegylated Cys-variant CRHR2 peptide agonist (NES linker, PEG about 20 kDa), SEQ ID NO: 80], for which the “Log DR against h-SCP, cAMP” value turned out to be 1.75 log10 ratio and the “pA50, cAMP” value was 7.6 -log M.

Take TKFTLSLDVPTNIMNLCFNIAKAKNLRAQAAANAHLMAQI (NES-PEG (about 20 kDa) on Cys 17; C-terminal amide) [Pegylated Cys-variant CRHR2 peptide agonist (NES linker, PEG about 20 kDa), SEQ ID NO: 71]: the “Log DR against h-SCP, cAMP” value was around 2.26 log10 ratio and the “pA50, cAMP” value is ~7.35 -log M.

Turning to TKFTLSLDVPTNIMNLLFNIAKACNLRAQAAANAHLMAQI (NES-PEG (about 20 kDa) on Cys 24; C-terminal amide) [Pegylated Cys-variant CRHR2 peptide agonist (NES linker, PEG about 20 kDa), SEQ ID NO: 78], the “Log DR against h-SCP, cAMP” value was around 1.52 log10 ratio and the “pA50, cAMP” value was ~7.89 -log M.

TKFTLSLDVPTNIMNCLFNIAKAKNLRAQAAANAHLMAQI (NES-PEG (about 20 kDa) on Cys 16; C-terminal amide) [Pegylated Cys-variant CRHR2 peptide agonist (NES linker, PEG about 20 kDa), SEQ ID NO: 70]: the “Log DR against h-SCP, cAMP” value was around 2.07 log10 ratio and the “pA50, cAMP” value is ~7.34 -log M.

Regarding TKFTLSLDVPTNIMNLLFNICKAKNLRAQAAANAHLMAQI (NES-PEG (about 20 kDa) on Cys 21; C-terminal amide) [Pegylated Cys-variant CRHR2 peptide agonist (NES linker, PEG about 20 kDa), SEQ ID NO: 75], the “Log DR against h-SCP, cAMP” value came out at 1.3 log10 ratio and the “pA50, cAMP” value is 8.24 -log M.

As to TKFTLSLDVPTNIMNLLFNIACAKNLRAQAAANAHLMAQI (NES-PEG (about 20 kDa) on Cys 22; C-terminal amide) [Pegylated Cys-variant CRHR2 peptide agonist (NES linker, PEG about 20 kDa), SEQ ID NO: 76], the “Log DR against h-SCP, cAMP” value worked out at 2.7 log10 ratio and the “pA50, cAMP” value is 6.84 -log M.

As to TKFTLSLDVPTNIMNLLFNIAKAKCLRAQAAANAHLMAQI (NES-PEG (about 20 kDa) on Cys 25; C-terminal amide) [Pegylated Cys-variant CRHR2 peptide agonist (NES linker, PEG about 20 kDa), SEQ ID NO: 79], the “Log DR against h-SCP, cAMP” value is 1.11 log10 ratio and the “pA50, cAMP” value is 8.5 -log M.

Consider TKFTLSLDVPTNCMNLLFNIAKAKNLRAQAAANAHLMAQI (NES-PEG (about 20 kDa) on Cys 13; C-terminal amide) [Pegylated Cys-variant CRHR2 peptide agonist (NES linker, PEG about 20 kDa), SEQ ID NO: 67], for which the “Log DR against h-SCP, cAMP” value was above 3 log10 ratio and the “pA50, cAMP” value was ~6.35 -log M.

Take TKFTLSLDVPTNIMNLLCNIAKAKNLRAQAAANAHLMAQI-NH2 [Cys-variant CRHR2 peptide agonist, SEQ ID NO: 19]: the “Log DR against h-SCP, cAMP” value is 1.67 log10 ratio and the “pA50, cAMP” value is 8.01 -log M.

For TKFTLSLDVPTCIMNLLFNIAKAKNLRAQAAANAHLMAQI-NH2 [Cys-variant CRHR2 peptide agonist, SEQ ID NO: 13], the “Log DR against h-SCP, cAMP” value is -0.01 log10 ratio and the “pA50, cAMP” value is 9.59 -log M.

TKFTLSLDVPTNCMNLLFNIAKAKNLRAQAAANAHLMAQI-NH2 [Cys-variant CRHR2 peptide agonist, SEQ ID NO: 14]: the “Log DR against h-SCP, cAMP” value was above 2 log10 ratio and the “pA50, cAMP” value is ~7.34 -log M.

On to TKFTLSLDVPTNIMNLLFNICKAKNLRAQAAANAHLMAQI-NH2 [Cys-variant CRHR2 peptide agonist, SEQ ID NO: 22], for which the “Log DR against h-SCP, cAMP” value is 0.52 log10 ratio and the “pA50, cAMP” value is 9.17 -log M.

As to TKFTLSLDVPTNIMNLLFNIAKCKNLRAQAAANAHLMAQI-NH2 [Cys-variant CRHR2 peptide agonist, SEQ ID NO: 24], the “Log DR against h-SCP, cAMP” value was 0.74 log10 ratio and the “pA50, cAMP” value was 8.94 -log M.

In the case of TKFTLSLDVPTNIMNLLFCIAKAKNLRAQAAANAHLMAQI-NH2 [Cys-variant CRHR2 peptide agonist, SEQ ID NO: 20], the “Log DR against h-SCP, cAMP” value turned out to be 0.52 log10 ratio and the “pA50, cAMP” value is 9 -log M.
